Assay results reported in publication PMC5842622, “The Entamoeba histolytica TBP and TRF1 transcription factors are GAAC-box binding proteins, which display differential gene expression under different stress stimuli and during the interaction with ma”.

Columns and labels:
Details in all cases: protein: recombinant; tags: His tag; label: 5'-32P; blunt
[1] = molecular target: T1, rEhTBP (TATA-box binding protein) (Entamoeba histolytica, UniProt P52653 1-234); test: EMSA; 4 C, 1 mM MgCl2; EMSA: 12 mM Hepes pH 7.9, 60 mM KCl, 1 mM each DTT, EDTA, spermidine and MgCl2, 10% glycerol, poly(dG-dC) 1 ug/ul, 10 min at 4 C; probe 557 pM (TATA), 64 pM (GAAC) or 82 pM (GAAC-like)
T1 sequence: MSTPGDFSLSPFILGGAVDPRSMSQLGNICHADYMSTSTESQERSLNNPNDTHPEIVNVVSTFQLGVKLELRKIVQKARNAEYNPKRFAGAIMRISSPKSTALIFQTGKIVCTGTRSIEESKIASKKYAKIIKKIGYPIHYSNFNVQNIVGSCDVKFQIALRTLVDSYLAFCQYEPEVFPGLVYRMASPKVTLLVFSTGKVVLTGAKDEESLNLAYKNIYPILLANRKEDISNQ

[2] = molecular target: T2, rEhTRF1 (TBP-related factor 1) (Entamoeba histolytica, UniProt A7UFC2 1-216); test: as above
T2 sequence: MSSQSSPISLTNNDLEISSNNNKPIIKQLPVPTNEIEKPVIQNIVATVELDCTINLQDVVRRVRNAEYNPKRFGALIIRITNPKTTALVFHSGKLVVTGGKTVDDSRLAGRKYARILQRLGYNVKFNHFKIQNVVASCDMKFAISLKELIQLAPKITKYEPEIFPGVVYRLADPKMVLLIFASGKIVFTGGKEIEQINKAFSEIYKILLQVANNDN

[3] = molecular target: T2, rEhTRF1 (TBP-related factor 1); test: EMSA; specifically competed; EMSA: 12 mM Hepes pH 7.9, 60 mM KCl, 1 mM each DTT, EDTA, spermidine and MgCl2, 10% glycerol, poly(dG-dC) 1 ug/ul, 10 min at 4 C; probe 557 pM (TATA), 64 pM (GAAC) or 82 pM (GAAC-like)
[4] = molecular target: T1, rEhTBP (TATA-box binding protein); test: EMSA; complex barely competed by specific competitor; EMSA: 12 mM Hepes pH 7.9, 60 mM KCl, 1 mM each DTT, EDTA, spermidine and MgCl2, 10% glycerol, poly(dG-dC) 1 ug/ul, 10 min at 4 C; probe 557 pM (TATA), 64 pM (GAAC) or 82 pM (GAAC-like)

B1: TAcTcAAA (7) (dsDNA)
DNA 1: AATTCTCTACTCAAAGAGAATT
DNA 2: AATTCTCTTTGAGTAGAGAATT
In the case of B1, the Kd [1] is reported as 0.00276 nM and the Kd [2] is reported as 0.0298 nM.

B2: GAAC-box (wild type) (dsDNA)
DNA 1: AAGACAATGAACTAGAATG
DNA 2: CATTCTAGTTCATTGTCTT
Binder B2 has a Kd [1] of 0.019 nM and a Kd [2] of 0.0794 nM.

B3: gAgTTAAA (6) (dsDNA)
DNA 1: AATTCTCGAGTTAAAGAGAATT
DNA 2: AATTCTCTTTAACTCGAGAATT
B3 showed a Kd [1] of 0.00473 nM and a Kd [2] of 0.00685 nM.

B4: TATTTAAA (1) (dsDNA)
DNA 1: AATTCTCTATTTAAAGAGAATT
DNA 2: AATTCTCTTTAAATAGAGAATT
B4 gave a Kd [1] of 0.0207 nM and a Kd [2] of 0.0529 nM.

B5: TATTTttt (10) (dsDNA)
DNA 1: AATTCTCTATTTTTTGAGAATT
DNA 2: AATTCTCAAAAAATAGAGAATT
Binder B5 has a Kd [1] of 0.0034 nM and a Kd [2] of 0.0254 nM.

B6: TATTggAA (3) (dsDNA)
DNA 1: AATTCTCTATTGGAAGAGAATT
DNA 2: AATTCTCTTCCAATAGAGAATT
B6 gave a Kd [1] of 0.0357 nM and a Kd [2] of 0.0135 nM.

B7: cAcTcAAA (8) (dsDNA)
DNA 1: AATTCTCCACTCAAAGAGAATT
DNA 2: AATTCTCTTTGAGTGGAGAATT
B7 gave a Kd [1] of 0.038 nM and a Kd [2] of 0.0308 nM.

B8: GAAC-like box (dsDNA)
DNA 1: AGGCGAACTACAAAAGAT
DNA 2: ATCTTTTGTAGTTCGCCT
B8: binds [3]; binds [4].

B9: TATgTAAA (5) (dsDNA)
DNA 1: AATTCTCTATGTAAAGAGAATT
DNA 2: AATTCTCTTTACATAGAGAATT
Work on B9 yielded a Kd [1] of 0.00169 nM and a Kd [2] of 0.00674 nM.

B10: TATTaAAA (4) (dsDNA)
DNA 1: AATTCTCTATTAAAAGAGAATT
DNA 2: AATTCTCTTTTAATAGAGAATT
B10 gave a Kd [1] of 0.00485 nM and a Kd [2] of 0.00398 nM.

B11: TAgTgAAA (2) (dsDNA)
DNA 1: AATTCTCTAGTGAAAGAGAATT
DNA 2: AATTCTCTTTCACTAGAGAATT
Work on B11 yielded a Kd [1] of 0.0398 nM and a Kd [2] of 0.013 nM.

B12: cAcTTAAA (9) (dsDNA)
DNA 1: AATTCTCCACTTAAAGAGAATT
DNA 2: AATTCTCTTTAAGTGGAGAATT
B12 was tested, and the binding result [1] was “no binding” and the Kd [2] was 0.00972 nM.
